Where a chain is given by its changes, count along the chain named. Names may count otherwise.
Tests used:
[1] = target: T1, AtNF-YA6;AtNF-YB2;AtNF-YC3 (Arabidopsis thaliana;Arabidopsis …, UniProt Q9LVJ7;Q9FGJ3;Q9ZVL3 170-237;24-116;55-148, ||); test: EMSA; 12 mM Tris-HCl pH 8.0, 50 mM NaCl, 50 mM KCl, 5 mM MgCl2, 0.5 mM EDTA, 12% glycerol, 0.2 mg/mL BSA, 2.5 mM DTT, 100 ng poly(dA:dT), 20 nM Cy5 probe, 30 C 30 min; 6% PAGE in 0.25X TBE; conditions: protein: recombinant;recombinant;recombinant; tags: 6His;6His removed by thrombin;; copies: 1;1;1; label: Cy5 5'
T1 sequence (Q9LVJ7 170-237, chain 1 of 3): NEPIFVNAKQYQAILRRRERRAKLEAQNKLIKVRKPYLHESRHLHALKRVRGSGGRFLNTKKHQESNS
T1 sequence (Q9FGJ3 24-116, chain 2 of 3): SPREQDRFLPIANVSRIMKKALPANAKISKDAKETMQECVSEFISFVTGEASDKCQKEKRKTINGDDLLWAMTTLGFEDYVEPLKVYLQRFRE
T1 sequence (Q9ZVL3 55-148, chain 3 of 3): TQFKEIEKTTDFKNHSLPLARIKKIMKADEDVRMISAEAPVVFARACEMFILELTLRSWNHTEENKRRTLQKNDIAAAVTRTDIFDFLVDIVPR

[2] = target: AtNF-YA2;AtNF-YB2;AtNF-YC3 (Arabidopsis thaliana;Arabidopsis …, UniProt Q9M9X4;Q9FGJ3;Q9ZVL3 134-207;24-116;55-148, ||); test: EMSA; efficiency similar to NF-YA6 trimer; 12 mM Tris-HCl pH 8.0, 50 mM NaCl, 50 mM KCl, 5 mM MgCl2, 0.5 mM EDTA, 12% glycerol, 0.2 mg/mL BSA, 2.5 mM DTT, 100 ng poly(dA:dT), 20 nM Cy5 probe, 30 C 30 min; 6% PAGE in 0.25X TBE; conditions: protein: recombinant;recombinant;recombinant; tags: 6His;6His removed by thrombin;; copies: 1;1;1; label: Cy5 5'
AtNF-YA2;AtNF-YB2;AtNF-YC3, sequence (Q9M9X4 134-207, chain 1 of 3): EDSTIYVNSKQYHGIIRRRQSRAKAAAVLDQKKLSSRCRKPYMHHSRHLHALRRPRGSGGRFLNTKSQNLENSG
AtNF-YA2;AtNF-YB2;AtNF-YC3, sequence (Q9FGJ3 24-116, chain 2 of 3): as the sequence (Q9FGJ3 24-116, chain 2 of 3) above
AtNF-YA2;AtNF-YB2;AtNF-YC3, sequence (Q9ZVL3 55-148, chain 3 of 3): as the sequence (Q9ZVL3 55-148, chain 3 of 3) above

[3] = target: T1, AtNF-YA6;AtNF-YB2;AtNF-YC3; test: competition EMSA; highest affinity at -3; 12 mM Tris-HCl pH 8.0, 50 mM NaCl, 50 mM KCl, 5 mM MgCl2, 0.5 mM EDTA, 12% glycerol, 0.2 mg/mL BSA, 2.5 mM DTT, 100 ng poly(dA:dT), 20 nM Cy5 probe, 30 C 30 min; 6% PAGE in 0.25X TBE; conditions: protein: recombinant;recombinant;recombinant; tags: 6His;6His removed by thrombin;; copies: 1;1;1
[4] = target: T1, AtNF-YA6;AtNF-YB2;AtNF-YC3; test: competition EMSA; equal to WT; 12 mM Tris-HCl pH 8.0, 50 mM NaCl, 50 mM KCl, 5 mM MgCl2, 0.5 mM EDTA, 12% glycerol, 0.2 mg/mL BSA, 2.5 mM DTT, 100 ng poly(dA:dT), 20 nM Cy5 probe, 30 C 30 min; 6% PAGE in 0.25X TBE; conditions: protein: recombinant;recombinant;recombinant; tags: 6His;6His removed by thrombin;; copies: 1;1;1
[5] = target: T1, AtNF-YA6;AtNF-YB2;AtNF-YC3; test: competition EMSA; better than WT; 12 mM Tris-HCl pH 8.0, 50 mM NaCl, 50 mM KCl, 5 mM MgCl2, 0.5 mM EDTA, 12% glycerol, 0.2 mg/mL BSA, 2.5 mM DTT, 100 ng poly(dA:dT), 20 nM Cy5 probe, 30 C 30 min; 6% PAGE in 0.25X TBE; conditions: protein: recombinant;recombinant;recombinant; tags: 6His;6His removed by thrombin;; copies: 1;1;1
[6] = target: T1, AtNF-YA6;AtNF-YB2;AtNF-YC3; test: competition EMSA; preferred over WT; 12 mM Tris-HCl pH 8.0, 50 mM NaCl, 50 mM KCl, 5 mM MgCl2, 0.5 mM EDTA, 12% glycerol, 0.2 mg/mL BSA, 2.5 mM DTT, 100 ng poly(dA:dT), 20 nM Cy5 probe, 30 C 30 min; 6% PAGE in 0.25X TBE; conditions: protein: recombinant;recombinant;recombinant; tags: 6His;6His removed by thrombin;; copies: 1;1;1
[7] = target: T1, AtNF-YA6;AtNF-YB2;AtNF-YC3; test: competition EMSA; purines preferred at +2; 12 mM Tris-HCl pH 8.0, 50 mM NaCl, 50 mM KCl, 5 mM MgCl2, 0.5 mM EDTA, 12% glycerol, 0.2 mg/mL BSA, 2.5 mM DTT, 100 ng poly(dA:dT), 20 nM Cy5 probe, 30 C 30 min; 6% PAGE in 0.25X TBE; conditions: protein: recombinant;recombinant;recombinant; tags: 6His;6His removed by thrombin;; copies: 1;1;1
[8] = target: T1, AtNF-YA6;AtNF-YB2;AtNF-YC3; test: competition EMSA; similar rates, WT A least preferred; 12 mM Tris-HCl pH 8.0, 50 mM NaCl, 50 mM KCl, 5 mM MgCl2, 0.5 mM EDTA, 12% glycerol, 0.2 mg/mL BSA, 2.5 mM DTT, 100 ng poly(dA:dT), 20 nM Cy5 probe, 30 C 30 min; 6% PAGE in 0.25X TBE; conditions: protein: recombinant;recombinant;recombinant; tags: 6His;6His removed by thrombin;; copies: 1;1;1
[9] = target: T1, AtNF-YA6;AtNF-YB2;AtNF-YC3; test: competition EMSA; higher affinity; 12 mM Tris-HCl pH 8.0, 50 mM NaCl, 50 mM KCl, 5 mM MgCl2, 0.5 mM EDTA, 12% glycerol, 0.2 mg/mL BSA, 2.5 mM DTT, 100 ng poly(dA:dT), 20 nM Cy5 probe, 30 C 30 min; 6% PAGE in 0.25X TBE; conditions: protein: recombinant;recombinant;recombinant; tags: 6His;6His removed by thrombin;; copies: 1;1;1
[10] = target: T1, AtNF-YA6;AtNF-YB2;AtNF-YC3; test: competition EMSA; 12 mM Tris-HCl pH 8.0, 50 mM NaCl, 50 mM KCl, 5 mM MgCl2, 0.5 mM EDTA, 12% glycerol, 0.2 mg/mL BSA, 2.5 mM DTT, 100 ng poly(dA:dT), 20 nM Cy5 probe, 30 C 30 min; 6% PAGE in 0.25X TBE; conditions: protein: recombinant;recombinant;recombinant; tags: 6His;6His removed by thrombin;; copies: 1;1;1

B1: CAB2 (-65) CCAAT 31 bp probe (dsDNA)
DNA 1: CTTAAAATCCAATGAATGAACAGATAAAGAT
DNA 2: ATCTTTATCTGTTCATTCATTGGATTTTAAG
binding result [1]: binds
binding result [2]: binds

B2: CAB2 A5T (dsDNA)
DNA 1: B1 DNA 1 with A6T
DNA 2: B1 DNA 2 with T26A
binding result [3]: binds

B3: CAB2 A6T (dsDNA)
DNA 1: B1 DNA 1 with A7T
DNA 2: B1 DNA 2 with T25A
binding result [4]: binds

B4: CAB2 A6C (dsDNA)
DNA 1: B1 DNA 1 with A7C
DNA 2: B1 DNA 2 with T25G
binding result [5]: binds

B5: CAB2 A6G (dsDNA)
DNA 1: B1 DNA 1 with A7G
DNA 2: B1 DNA 2 with T25C
binding result [5]: binds

B6: CAB2 T7A (dsDNA)
DNA 1: B1 DNA 1 with T8A
DNA 2: B1 DNA 2 with A24T
binding result [6]: binds

B7: CAB2 T7G (dsDNA)
DNA 1: B1 DNA 1 with T8G
DNA 2: B1 DNA 2 with A24C
binding result [6]: binds

B8: CAB2 G13C (dsDNA)
DNA 1: B1 DNA 1 with G14C
DNA 2: B1 DNA 2 with C18G
binding result [6]: binds

B9: CAB2 A14G (dsDNA)
DNA 1: B1 DNA 1 with A15G
DNA 2: B1 DNA 2 with T17C
binding result [7]: binds

B10: CAB2 A15C (dsDNA)
DNA 1: B1 DNA 1 with A16C
DNA 2: B1 DNA 2 with T16G
binding result [8]: binds

B11: CAB2 A15G (dsDNA)
DNA 1: B1 DNA 1 with A16G
DNA 2: B1 DNA 2 with T16C
binding result [8]: binds

B12: CAB2 A15T (dsDNA)
DNA 1: B1 DNA 1 with A16T
DNA 2: B1 DNA 2 with T16A
binding result [8]: binds

B13: CAB2 T16A (dsDNA)
DNA 1: B1 DNA 1 with T17A
DNA 2: B1 DNA 2 with A15T
binding result [9]: binds

B14: CAB2 WT competitor 31 bp (dsDNA)
DNA 1: B1 DNA 1
DNA 2: B1 DNA 2
binding result [10]: binds
